Measurements taken from patent US20210121406A1 (AstraZeneca / MedImmune, published 2021).
Substitutions are numbered along the chain they refer to.

B1: cyno TSLP (ligand, cynomolgus (cyno))
chain: YDFTNCDFQKIEADYLRTISKDLITYMSGTKSTDFNNTVSCSNRPHCLTEIQSLTFNPTPRCASLAKEMFARKTKATLALWCPGYSETQINATQAMKKRRKRKVTTNKCLEQVSQLLGLWRRFIRTLLKKQ
notes: As used in solution in the KinExA assay; also called Cynomolgus TSLP
B2: Fab1 (Fab, V domains shown)
VH: QMQLVESGGGVVQPGRSLRLSCAASGFTFRTYGMHWVRQAPGKGLEWVAVIWYDGSNKHYADSVKGRFTITRDNSKNTLNLQMNSLRAEDTAVYYCARAPQWELVHEAFDIWGQGTMVTVSS
VL: SYVLTQPPSVSVAPGQTARITCGGNNLGSKSVHWYQQKPGQAPVLVVYDDSDRPSWIPERFSGSNSGNTATLTISRGEAGDEADYYCQVWDSSSDHVVFGGGTKLTVLG
notes: CDRs of anti-TSLP mAb A5 (WO 2009/035577) cloned into an IgG1 Fab scaffold; also called anti-TSLP Fab; MEDI8630
B3: Fab2 (Fab, V domains shown)
VH: B2 VH
VL: SYVLTQPPSVSVAPGQTARITCGGNNIGSKSVHWYQQKPGQAPVLVVYDDSDRPSWIPERFSGSNSGNTATLTISRGEAGDEADYYCQVWDSSSDHVVFGGGTKLTVL
B4: Fab3 (Fab, V domains shown)
VH: B2 VH
VL: B3 VL with I27V
notes: Only the changed VL is printed
B5: Fab4 (Fab, V domains shown)
VH: B2 VH with D62E
VL: B3 VL with I27L
notes: Only the changed VH is printed
B6: Fab5 (Fab, V domains shown)
VH: B2 VH with G66A
VL: B3 VL with I27L
notes: as for B5
B7: Fab6 (Fab, V domains shown)
VH: B2 VH
VL: B3 VL with N25Q, I27L
notes: as for B4
B8: Fab7 (Fab, V domains shown)
VH: B2 VH
VL: B3 VL with N26Q, I27L
notes: VL as labelled 'LIGHT CHAIN VL FAB7'
B9: Fab8 (Fab, V domains shown)
VH: B2 VH
VL: B3 VL with I27L, S92T
notes: as for B4
B10: Fab9 (Fab, V domains shown)
VH: B2 VH
VL: B3 VL with I27L, S93T
notes: as for B4

Key:
[1] = target: B2; assay: KinExA, cyno TSLP titrated into 40 pM fixed Fab1 (open squares); free Fab1 captured on hu TSLP-coated beads
[2] = target: B2; assay: KinExA, cyno TSLP titrated into 1000 pM fixed Fab1 (filled diamonds); free Fab1 captured on hu TSLP-coated beads
[3] = target: T1, N-terminally tagged biotinylated cyno TSLP (cynomolgus (cyno), UniProt A0A7N9CAT7 29-159, biotinylated (site not stated)); assay: SPR (Biacore 8K), biotinylated TSLP on streptavidin, Fab1 in flow, 1:1 Langmuir model
T1 construct: Captured on streptavidin in the Biacore assay; also called Cynomolgus TSLP; recombinant mammalian cell-expressed cyno TSLP; not shown: N-terminal tag

[4] = target: B1; assay: KinExA, solution phase, global 1:1 fit
[5] = target: T2, biotinylated His-Avi hu TSLP (human, UniProt Q969D9 29-159, biotinylated (site not stated)); assay: HTRF competition; competitor DyLight-labelled tezepelumab
T2 construct: also called biotinylated TSLP; not shown: His-Avi tag

B1
IC50 (read off the curve) [1]: ~0.04 nM | IC50 (read off the curve) [2]: ~0.6 nM

B2
Kd [3]: 0.0884 nM | Kd [4]: 0.0136 nM

B3
IC50 [5]: 0.29 nM

B4
IC50 [5]: 0.24 nM

B5
IC50 [5]: 0.36 nM

B6
IC50 [5]: 0.42 nM

B7
IC50 [5]: 0.32 nM

B8
IC50 [5]: 0.24 nM

B9
IC50 [5]: 0.29 nM

B10
IC50 [5]: 0.29 nM
